Test results as given in paper PMC4967826, “Combined structural, biochemical and cellular evidence demonstrates that both FGDF motifs in alphavirus nsP3 are required for efficient replication” (Open Biology, 2016).
pKd: −log10 of the molar value.

How the values were obtained:
G3BP-1 F15A mutant = conditions: isothermal titration calorimetry; ref [28]; cited from earlier work
Excerpt: The importance of the hydrophobic FGDF-binding site of G3BP-1 has been validated in previous binding studies using mutated versions of G3BP in which Phe-33 and Phe-15 were substituted to tryptophan and alanine, respectively. Both Phe-33 and Phe-15 are localized centrally within the hydrophobic binding site that coordinates the phenylalanine residues of the FGDF motif (figure 2b,c).

[1] = target: nsP3-F3AC of virus SFV-F3AC (Semliki Forest virus)
[2] = target: GFP-nsP3-36 (GFP fused to the C-terminal 36 residues of SFV nsP3, C-terminal His tag) (Semliki Forest virus); assay: MST
[3] = target: GFP-nsP3-36-F3AC (Semliki Forest virus); assay: MST
[4] = target: GFP-nsP3-36-F3AN (Semliki Forest virus); assay: MST
[5] = target: GFP-nsP3-36-F3ANC (Semliki Forest virus); assay: MST

Substance: DSGFSFGSK [nucleoporin (Nup)-derived peptide]
- binding affinity to F15A mutant of G3BP-1 (G3BP-1 F15A mutant): five times lower binding affinity

Substance: G3BP-1 (endogenous, BHK cells) (from UniProt A0A9J7JVX0 1-465) (natural protein)
- G3BP-1 in the IP relative to SFV WT (densitometry) [1]: 49.5%

Substance: NTF2-like domain of human G3BP-1 (residues 1-139) (from UniProt Q13283 1-139) (domain or fragment)
- binding constant of the high-affinity binding event [2]: 150 nM
- binding constant of the low-affinity binding event [2]: 4.1 µM
- binding constant of the high-affinity binding event [3]: 410 nM
- binding constant of the low-affinity binding event [3]: 23 µM
- pKd [4]: 5.24
- pKd [5]: 4.77
